Source: patent publication US20100021987

How the values were obtained:
[1] = target: 6xHis-hSUMO-3-X-eGFP, X = L
[2] = target: 6xHis-hSUMO-3-X-eGFP, X = D
[3] = target: 6xHis-hSUMO-3-eGFP
[4] = target: 6xHis-hSUMO-3-X-eGFP, X = T
[5] = target: 6xHis-AtSUMO2-eGFP
[6] = target: 6xHis-hSUMO-3-X-eGFP, X = C
[7] = target: 6xHis-hSUMO-3-X-eGFP, X = N
[8] = target: 6xHis-hSUMO-3-X-eGFP, X = Y
[9] = target: 6xHis-hSUMO-3-X-eGFP, X = H
[10] = target: 6xHis-hSUMO-3-X-eGFP, X = P
[11] = target: 6xHis-hSUMO-3-X-eGFP, X = R
[12] = target: 6xHis-hSUMO-3-X-eGFP, X = F
[13] = target: 6xHis-ySmt3-eGFP
[14] = target: 6xHis-hSUMO-3-X-eGFP, X = K
[15] = target: 6xHis-T-SUMO-eGFP
[16] = target: 6xHis-hSUMO-3-X-eGFP, X = A
[17] = target: 6xHis-hSUMO-3-X-eGFP, X = W
[18] = target: 6xHis-hSUMO-3-X-eGFP, X = Q
[19] = target: 6xHis-hSUMO-1-eGFP
[20] = target: 6xHis-hSUMO-3-X-eGFP, X = E
[21] = target: 6xHis-hSUMO-3-X-eGFP, X = G
[22] = target: 6xHis-hSUMO-3-X-eGFP, X = V
[23] = target: 6xHis-AtSUMO1-eGFP
[24] = target: 6xHis-hSUMO-3-X-eGFP, X = S
[25] = target: 6xHis-hSUMO-3-X-eGFP, X = I

B1: human SENP2 (hSENP2) SUMO protease catalytic domain (protein)
chain: MASLLELTEDMEKEISNALGHGPQDEILSSAFKLRITRGDIQTLKNYHWLNDEVINFYMNLLVERNKKQGYPALHVFSTFFYPKLKSGGYQAVKRWTKGVNLFEQEIILVPIHRKVHWSLVVIDLRKKCLKYLDSMGQKGHRICEILLQYLQDESKTKRNSDLNLLEWTHHSMKPHEIPQQLNGSDCGMFTCKYADYISRDKPITFTQHQMPLFRKKMVWEILHQQLLAAALEHHHHHH
Percent cleavage, enzyme:substrate 1:100 [1]: 98.6% | Percent cleavage, enzyme:substrate 1:1000 [1]: 75.2% | Percent cleavage, enzyme:substrate 1:100 [2]: 99.5% | Percent cleavage, enzyme:substrate 1:1000 [2]: 69.8% | Kcat [3]: Kcat = 0.33 | Kcat, fold difference against yUlp1 [3]: about 12-fold difference in Kcat | Km [3]: Km = 2.41 mM | Percent cleavage, enzyme:substrate 1:100 [3]: 99.4% | Percent cleavage, enzyme:substrate 1:1000 [3]: 95.4% | activity level (grade) [3]: +++ | cleavage, 2-fold enzyme dilution series, SDS-PAGE; fold against yUlp1 [3]: hSENP2 was able to cleave hSUMO-3-eGFP at least 4-fold better than an identical amount of yUlp1 | cleavage, time course, SDS-PAGE [3]: providing nearly complete cleavage within 2 hrs. | Percent cleavage, enzyme:substrate 1:100 [4]: 99% | Percent cleavage, enzyme:substrate 1:1000 [4]: 82% | activity level (grade) [5]: + | Percent cleavage, enzyme:substrate 1:100 [6]: 100% | Percent cleavage, enzyme:substrate 1:1000 [6]: 98.5% | Percent cleavage, enzyme:substrate 1:100 [7]: 96.2% | Percent cleavage, enzyme:substrate 1:1000 [7]: 98.3% | Percent cleavage, enzyme:substrate 1:100 [8]: 100% | Percent cleavage, enzyme:substrate 1:1000 [8]: 98.7% | Percent cleavage, enzyme:substrate 1:100 [9]: 100% | Percent cleavage, enzyme:substrate 1:1000 [9]: 98.4% | Percent cleavage, enzyme:substrate 1:100 [10]: 0% | Percent cleavage, enzyme:substrate 1:1000 [10]: 0% | Percent cleavage, enzyme:substrate 1:100 [11]: 99.7% | Percent cleavage, enzyme:substrate 1:1000 [11]: 98.7% | Percent cleavage, enzyme:substrate 1:100 [12]: 100% | Percent cleavage, enzyme:substrate 1:1000 [12]: 98.9% | Kcat [13]: Kcat = 0.75 | Kcat, fold difference against yUlp1 [13]: about 2-fold difference in Kcat | Km [13]: Km = 2.72 mM | activity level (grade) [13]: +++++ | cleavage, 2-fold enzyme dilution series, SDS-PAGE; fold against yUlp1 [13]: hSENP2 was able to cleave hSUMO-1 and ySmt3 fusions somewhat more effectively (about 2-fold) than yUlp1 | cleavage, time course, SDS-PAGE [13]: both enzymes cleaving hSUMO-1-eGFP poorly and ySmt3-eGFP well | Percent cleavage, enzyme:substrate 1:100 [14]: 100% | Percent cleavage, enzyme:substrate 1:1000 [14]: 92.8% | activity level (grade) [15]: + | Percent cleavage, enzyme:substrate 1:100 [16]: 99.6% | Percent cleavage, enzyme:substrate 1:1000 [16]: 92.5% | Percent cleavage, enzyme:substrate 1:100 [17]: 100% | Percent cleavage, enzyme:substrate 1:1000 [17]: 99.4% | Percent cleavage, enzyme:substrate 1:100 [18]: 95.9% | Percent cleavage, enzyme:substrate 1:1000 [18]: 66.7% | activity level (grade) [19]: ++ | cleavage, 2-fold enzyme dilution series, SDS-PAGE; fold against yUlp1 [19]: hSENP2 was able to cleave hSUMO-1 and ySmt3 fusions somewhat more effectively (about 2-fold) than yUlp1 | cleavage, time course, SDS-PAGE [19]: both enzymes cleaving hSUMO-1-eGFP poorly | Percent cleavage, enzyme:substrate 1:100 [20]: 100% | Percent cleavage, enzyme:substrate 1:1000 [20]: 92.2% | Percent cleavage, enzyme:substrate 1:100 [21]: 100% | Percent cleavage, enzyme:substrate 1:1000 [21]: 98.9% | Percent cleavage, enzyme:substrate 1:100 [22]: 100% | Percent cleavage, enzyme:substrate 1:1000 [22]: 99.8% | activity level (grade) [23]: + | cleavage, 2-fold enzyme dilution series, SDS-PAGE [23]: Both hSENP2 and yUlp1 cleaved the AtSUMO1 fusion similarly | Percent cleavage, enzyme:substrate 1:100 [24]: 99.6% | Percent cleavage, enzyme:substrate 1:1000 [24]: 99.1% | Percent cleavage, enzyme:substrate 1:100 [25]: 98.4% | Percent cleavage, enzyme:substrate 1:1000 [25]: 56.2%
